Assay results from the supplement of paper PMC12042874.
± gives the uncertainty stated by the source.

Test: amyloid nucleation score (Sup35N fusion, yeast selection) (log enrichment); library NNK2; higher = more nucleation; inactive = no reads after selection
Summary of the method: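 The nucleation score equals the log enrichment of output over input reads from DiMSum, centred on the mode score of non-aggregating sequences. It was computed only for sequences with 100 or more input reads. The reads came from Illumina sequencing of plasmid inserts from psi-negative yeast expressing Sup35N fused to peptides of 20 random codons, induced with 100 μM copper sulfate for 24 hours and grown 7 days at 30°C without adenine and uracil.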

| Substance | amyloid nucleation score |
| --- | --- |
| WVGSCKNVSFMQVIVWIVRL | -0.121 ± 1.1 |
| WVLPSLKGCTAVSYIFVFLY | 0.398 ± 0.27 |
| WVNSKLGLKVSLIEAGVEVS | -0.116 ± 0.43 |
| WVTGPSRPD | 0.387 ± 0.8 |
| WVVHLSSGIRNF | inactive |
| WVVNRTQGYGRLSSGDEEVP | 1.35 ± 0.37 |
| WVWGIGSFRRSFQCWWWFSN | -1.86 ± 0.73 |
| WWFTAIGCSVGRLGSFNR | 2.06 ± 0.16 |
| WWVKTVLFKK | -0.947 ± 0.78 |
| WWYPSGLDCFVVSFFRCHCV | -0.107 ± 1 |
| WYEYCFCGVMLYRTGDCTRR | 3.96 ± 0.086 |
| WYYRLLWYVLSQGRMRGNVQ | -0.011 ± 0.41 |
| YADPFSERYNFSALVFPFNI | inactive |
| YAIGDNAA | 0.111 ± 0.32 |
| YAVVFHVPLLV | 5.11 ± 0.079 |
| YCDCPVNICRRFPGHEHRGV | inactive |
| YCGFVFPAWGDLLTNGSPAA | 0.092 ± 0.29 |
| YCLVSIKMCYGYVVGSLVGW | 2.63 ± 0.068 |
| YDERTWGTECMCTSCSCADK | 1.24 ± 0.28 |
| YDLSASLVFGMFVNDLRRSR | 5.68 ± 0.096 |
| YDRIGCRASTSLSAYPLATA | 2.58 ± 0.076 |
| YDYFTLSTTGLWLAIYMWWC | 0.287 ± 0.56 |
| YEHLDIGNHKLGRCNRNFIA | -0.191 ± 1.1 |
| YEMFHAILCY | -0.101 ± 0.8 |
| YEPCLRSQNVSS | 0.112 ± 0.79 |
| YEVGHPYFDDNCRICSFWWK | 1.82 ± 0.12 |

| Substance | amyloid nucleation score |
| --- | --- |
| YEYVCVLAVACITGRFTLHW | -0.757 ± 0.36 |
| YFCERWMLSCIGGLFVNFLY | 0.168 ± 0.15 |
| YFDGVIWLLTYRIFMANDYS | inactive |
| YFELKLKNARVGRFIDWRAT | 1.77 ± 0.27 |
| YFFITYVPSEAGYRREKWFG | 7.34 ± 0.082 |
| YFFKRIW | inactive |
| YFFRMSWPLGPMTSFRTLYL | -0.608 ± 0.4 |
| YFGVLFPVMNWQLSWKNIYW | inactive |
| YFKDLKADVRVKMTKLEWPQ | 2.67 ± 0.12 |
| YFKTWAICHWFCNWRRLWMN | 0.305 ± 1 |
| YFLLVGAARIRRVKLLQ | -0.22 ± 0.62 |
| YFLRYSS | inactive |
| YFLSGRVSEGSAITIRELSP | 2.34 ± 0.091 |
| YFNGERFTRFISMEE | -1.21 ± 1.1 |
| YFNMSLTIPNI | 0.566 ± 0.47 |
| YFPPGDA | -0.47 ± 0.39 |
| YFPVIRRDAAFYPFSAPYFN | -2.05 ± 0.77 |
| YFRLLISCQNRLLVRKLRAA | -0.021 ± 0.79 |
| YFSFTGPHLDVA | -0.937 ± 0.34 |
| YFTSGNDDSVFDVYRSIWMV | 2.91 ± 0.13 |
| YFVSSC | -1.23 ± 0.35 |
| YFVVCAHPESYSIINRFATV | 6.311 ± 0.057 |
| YFWSFYEVISFDCYHLIIFS | 0.004 ± 0.18 |
| YGASRNWQKNSLVASEYQVG | inactive |
| YGDMAVFVG | 1.07 ± 0.41 |
| YGFGHRGNMTAWLSMATKTF | -0.109 ± 0.76 |

| Substance | amyloid nucleation score |
| --- | --- |
| YGIHTFSRYGVIWSCVSV | -0.64 ± 0.49 |
| YGSWSPHEAGVYT | inactive |
| YGVVYAYYPDQVQWVGCNE | -0.24 ± 0.64 |
| YGYIFISCENVRTQRSVIDG | inactive |
| YHKRSPIYSVLYDLDSFK | -1.04 ± 1.1 |
| YHLGSSLLLCI | inactive |
| YHLKYRGSMGVPCLNTFVWN | 5.15 ± 0.055 |
| YHSFCWANMIHRINSIVRLL | inactive |
| YICVTMPVWIH | 7.536 ± 0.042 |
| YIDGDNYHGILCHSRV | 3.86 ± 0.11 |
| YIFGSCGVYLFPPPAKF | 6.88 ± 0.078 |
| YIGRMVV | 0.306 ± 0.65 |
| YIIDRKEHFLSKCY | -0.738 ± 0.55 |
| YILMHGSHM | 3.73 ± 0.071 |
| YINLIWFSYMFGESFARGQR | 4 ± 0.13 |
| YIPCDKANRSFENC | 1.19 ± 0.35 |
| YIPMIKL | -0.794 ± 0.43 |
| YISGWYCVNTVSRNNSYRES | -1.72 ± 0.49 |
| YKLFWKWGFSGITDDSTLMR | inactive |
| YKPRGHEVRSVG | -0.752 ± 0.48 |
| YKRRRWRVENRNGVSFSHTD | 0.806 ± 0.3 |
| YKWIIESRMGALPKQLCRRA | -0.465 ± 0.42 |
| YKWWDLCLNFPCGRLKAQPR | 1.28 ± 0.25 |
| YLARASYS | 0.258 ± 0.18 |
| YLASFVFGIVNTYSAVALS | 0.552 ± 0.66 |
| YLCLTFCNIDNLQVMFKSAY | 8.209 ± 0.034 |

| Substance | amyloid nucleation score |
| --- | --- |
| YLCSSRITL | 1.31 ± 0.47 |
| YLIRVHICGCKYVERLFHSV | inactive |
| YLKKVQWYRQAYFGA | -0.694 ± 0.28 |
| YLKPLAFITSILHAMTRPWH | -1.28 ± 0.75 |
| YLKRPRPRRLGSP | 0.405 ± 0.33 |
| YLLHNSLKFRVHHSL | -0.68 ± 0.39 |
| YLLIPWKSKDPLHIGLLF | -0.381 ± 1.1 |
| YLLSMVRKDPVSRVSLKKGW | 0.566 ± 0.66 |
| YLLYCVS | inactive |
| YLMVISEQIGDMCTISS | -1.36 ± 0.76 |
| YLNLYLYCVNSSNDSYV | 6.513 ± 0.031 |
| YLSLVKSPLSSLNSFWTWM | -0.348 ± 0.23 |
| YLSYSTLLPKSETEWMYCVL | -0.631 ± 1 |
| YLTISIAGVVLNLFVIACIV | 0.757 ± 0.4 |
| YLTLTYPLLCLALNNLSVVL | 2.38 ± 0.15 |
| YLTNLNNCADKSNCW | inactive |
| YLYILVRNGGASSVC | -0.635 ± 0.4 |
| YMCKVSPLRILSF | 2.66 ± 0.056 |
| YMCQRTETMSVSTWGKILCV | inactive |
| YMCRYGFMDNFCAVHVSFVE | 5.645 ± 0.055 |
| YMHCNNCSNVHVWAKKKCRE | 8.432 ± 0.043 |
| YMKTN | -0.38 ± 0.32 |
| YMLMMALFQRC | 2.75 ± 0.15 |
| YMRSWEVLNMCGVSWLCIFA | 7.419 ± 0.064 |
| YMSLNKTAVTCVCHM | -0.425 ± 0.5 |
| YMSYNYGTVLEFLELPDSHR | 1.56 ± 0.11 |

| Substance | amyloid nucleation score |
| --- | --- |
| YMTPVLDSHSFADVSAIRCV | 0.212 ± 0.39 |
| YMVMA | -0.67 ± 1.1 |
| YMYFVFIRSSKSVMIKDVHC | inactive |
| YNCLACARVKWKSVCGRMSC | 0.388 ± 0.32 |
| YNCSI | 4.29 ± 0.11 |
| YNGLEVAYLF | 5.43 ± 0.062 |
| YNGRAIEHCQSMVSFRAVSR | -0.041 ± 0.6 |
| YNILVK | -0.622 ± 0.43 |
| YNMCYNG | -0.781 ± 1.1 |
| YNQVYES | 2.84 ± 0.054 |
| YNSNNRAILSLLHDQRNLYG | 0.643 ± 0.16 |
| YNSVKLLEGPFLCSSLTGS | 0.444 ± 0.6 |
| YNTPIIPAWVFSFHQWPEAF | -1.6 ± 1.1 |
| YPEPKQWVSVSALHLVRGLR | 0.995 ± 0.2 |
| YPISLWLFYGGSGAQTLVVR | 2.51 ± 0.1 |
| YPMNSVPDI | -0.858 ± 0.48 |
| YPPSVLFVSALHQVGTMSGG | 0.003 ± 0.3 |
| YPPWVSGVMIVMGHLRRCSA | 1.93 ± 0.43 |
| YPYDWSLLVLELVRQILSMG | 0.704 ± 0.47 |
| YQDWGSSTLLIVIKSWAGET | -1.02 ± 0.33 |
| YQINCLGSYDNLQCMIGGHV | 5.965 ± 0.037 |
| YQMADVPLNRMGHYPVYEGW | -0.845 ± 0.76 |
